Test results: patent US20090011979A1 (VIRON THERAPEUTICS, published 2009)

T1: mouse IL-18 (mouse, UniProt P70380 36-192)
T1 construct: also called murine IL-18
T1 sequence: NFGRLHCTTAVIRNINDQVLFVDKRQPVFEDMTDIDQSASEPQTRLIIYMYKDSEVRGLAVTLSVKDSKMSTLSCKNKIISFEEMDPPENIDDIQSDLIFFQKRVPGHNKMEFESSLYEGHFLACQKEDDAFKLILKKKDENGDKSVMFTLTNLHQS

T2: human IL-18 (human, UniProt Q14116 37-193)
T2 construct: also called hIL-18
T2 sequence: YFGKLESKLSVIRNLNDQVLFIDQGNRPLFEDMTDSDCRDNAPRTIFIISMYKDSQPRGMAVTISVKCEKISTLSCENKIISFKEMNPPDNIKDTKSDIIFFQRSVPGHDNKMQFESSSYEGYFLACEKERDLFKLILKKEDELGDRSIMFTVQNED

B1: tagged YCI (YMTV IL-18 bp with a C-terminal myc/his tag) (other)
chain: EKECDKHRSVNIQVPMKETSEVLLRCTGSSYFKHFSYVYWLVGESETVDQLQQNSGYGETSHPSKPHECGNLPSADLVLTNMTEKMRDTKLTCVLMDPDGHIDESLVLREVWDCFNKT
notes: also called 6xHis-tagged YCI; his-tagged version of the YCI
B2: untagged YCI (YMTV IL-18 bp, YMTV Cytokine Inhibitor, without tag) (other)
chain: B1 chain
notes: also called IL-18 bp from YMTV; purified untagged YCI protein

Experiments:
mouse IL-18 = target: T1, mouse IL-18; assay: Biacore (row 'Human/mouse IL-18 Biacore')
human IL-18 [1] = target: T2, human IL-18; assay: immunoprecipitation (row 'Human IL-18 immunoprecipitation')
human IL-18 [2] = target: T2, human IL-18; assay: Biacore (row 'Human/mouse IL-18 Biacore')

Binder | binding result (mouse IL-18) | binding result (human IL-18 [1]) | binding result (human IL-18 [2])
B1 | binds | binds | –
B2 | binds | – | binds
